From PMC8748919, “Dynamics and mechanism of dimer dissociation of photoreceptor UVR8” (Nature Communications, 2022)
Positions count from the first letter of the chain named. In names and notes the source's numbering stands.

B1: UVR8 W250 single-Trp mutant (receptor, Arabidopsis thaliana, UniProt Q9FN03 1-440, looked up)
chain: MAEDMAADEVTAPPRKVLIISAGASHSVALLSGDIVCSWGRGEDGQLGHGDAEDRPSPTQLSALDGHQIVSVTCGADHTVAYSQSGMEVYSWGWGDFGRLGHGNSSDLFTPLPIKALHGIRIKQIACGDSHCLAVTMEGEVQSWGRNQNGQLGLGDTEDSLVPQKIQAFEGIRIKMVAAGAEHTAAVTEDGDLYGWGWGRYGNLGLGDRTDRLVPERVTSTGGEKMSMVACGWRHTISVSYSGALYTYGFSKYGQLGHGDLEDHLIPHKLEALSNSFISQISGGWRHTMALTSDGKLYGWGWNKFGQVGVGNNLDQCSPVQVRFPDDQKVVQVSCGWRHTLAVTERNNVFAWGRGTNGQLGIGESVDRNFPKIIEALSVDGASGQHIESSNIDPSSGKSWVSPAERYAVVPDETGLTDGSSKGNGGDISVPQTDVKRVRI
notes: UVR8, Arabidopsis thaliana; mutant plasmid built on the wild-type plasmid; also called W250F; source: E. coli BL21-DE3, purified (Ni-Sepharose, Source-15Q)
B2: UVR8 W144 single-Trp mutant (receptor, Arabidopsis thaliana, UniProt Q9FN03 1-440, looked up)
chain: B1 chain with W144F, F250W
notes: UVR8, Arabidopsis thaliana; mutant plasmid built on the wild-type plasmid; also called W144F; source: E. coli BL21-DE3, purified (Ni-Sepharose, Source-15Q)
B3: UVR8 R234 mutated to neutral (Q) (receptor, Arabidopsis thaliana, UniProt Q9FN03 1-440, looked up)
chain: B1 chain with R234Q, F250W
notes: UVR8, Arabidopsis thaliana; mutant plasmid built on the wild-type plasmid; also called R234Q; source: E. coli BL21-DE3, purified (Ni-Sepharose, Source-15Q)
B4: UVR8 W285K/W233D (receptor, Arabidopsis thaliana, UniProt Q9FN03 1-440, looked up)
chain: B1 chain with W233D, F250W, W285K
notes: UVR8, Arabidopsis thaliana; mutant plasmid built on the wild-type plasmid; source: E. coli BL21-DE3, purified (Ni-Sepharose, Source-15Q)
B5: UVR8 W300 single-Trp mutant (receptor, Arabidopsis thaliana, UniProt Q9FN03 1-440, looked up)
chain: B1 chain with F250W, W300F
notes: UVR8, Arabidopsis thaliana; mutant plasmid built on the wild-type plasmid; also called W300F; source: E. coli BL21-DE3, purified (Ni-Sepharose, Source-15Q)
B6: UVR8 W337F (receptor, Arabidopsis thaliana, UniProt Q9FN03 1-440, looked up)
chain: B1 chain with F250W, W337F
notes: as for B4
B7: UVR8 W196 single-Trp mutant (receptor, Arabidopsis thaliana, UniProt Q9FN03 1-440, looked up)
chain: B1 chain with W196F, F250W
notes: UVR8, Arabidopsis thaliana; mutant plasmid built on the wild-type plasmid; also called W196F; source: E. coli BL21-DE3, purified (Ni-Sepharose, Source-15Q)
B8: UVR8 D129 mutated to positive (K) (receptor, Arabidopsis thaliana, UniProt Q9FN03 1-440, looked up)
chain: B1 chain with D129K, F250W
notes: UVR8, Arabidopsis thaliana; mutant plasmid built on the wild-type plasmid; also called D129K; source: E. coli BL21-DE3, purified (Ni-Sepharose, Source-15Q)
B9: UVR8 D129 mutated to neutral (N) (receptor, Arabidopsis thaliana, UniProt Q9FN03 1-440, looked up)
chain: B1 chain with D129N, F250W
notes: UVR8, Arabidopsis thaliana; mutant plasmid built on the wild-type plasmid; also called D129N; source: E. coli BL21-DE3, purified (Ni-Sepharose, Source-15Q)
B10: UVR8 W285/233/94/337G (receptor, Arabidopsis thaliana, UniProt Q9FN03 1-440, looked up)
chain: B1 chain with W94G, W233G, F250W, W285G, W337G
notes: as for B4
B11: UVR8 W285D/W233K (receptor, Arabidopsis thaliana, UniProt Q9FN03 1-440, looked up)
chain: B1 chain with W233K, F250W, W285D
notes: as for B4
B12: UVR8 W198 single-Trp mutant (receptor, Arabidopsis thaliana, UniProt Q9FN03 1-440, looked up)
chain: B1 chain with W198F, F250W
notes: UVR8, Arabidopsis thaliana; mutant plasmid built on the wild-type plasmid; also called W198F; source: E. coli BL21-DE3, purified (Ni-Sepharose, Source-15Q)
B13: UVR8 R338 mutated to lysine (K) (receptor, Arabidopsis thaliana, UniProt Q9FN03 1-440, looked up)
chain: B1 chain with F250W, R338K
notes: UVR8, Arabidopsis thaliana; mutant plasmid built on the wild-type plasmid; also called R338K; source: E. coli BL21-DE3, purified (Ni-Sepharose, Source-15Q)
B14: UVR8 W92 single-Trp mutant (receptor, Arabidopsis thaliana, UniProt Q9FN03 1-440, looked up)
chain: B1 chain with W92F, F250W
notes: UVR8, Arabidopsis thaliana; mutant plasmid built on the wild-type plasmid; also called W92F; source: E. coli BL21-DE3, purified (Ni-Sepharose, Source-15Q)
B15: UVR8 W94/337F (receptor, Arabidopsis thaliana, UniProt Q9FN03 1-440, looked up)
chain: B1 chain with W94F, F250W, W337F
notes: as for B4
B16: UVR8 W94F (receptor, Arabidopsis thaliana, UniProt Q9FN03 1-440, looked up)
chain: B1 chain with W94F, F250W
notes: as for B4
B17: UVR8 R286 mutated to lysine (K) (receptor, Arabidopsis thaliana, UniProt Q9FN03 1-440, looked up)
chain: B1 chain with F250W, R286K
notes: UVR8, Arabidopsis thaliana; mutant plasmid built on the wild-type plasmid; also called R286K; source: E. coli BL21-DE3, purified (Ni-Sepharose, Source-15Q)
B18: UVR8 W39 single-Trp mutant (receptor, Arabidopsis thaliana, UniProt Q9FN03 1-440, looked up)
chain: B1 chain with W39F, F250W
notes: UVR8, Arabidopsis thaliana; mutant plasmid built on the wild-type plasmid; also called W39F; source: E. coli BL21-DE3, purified (Ni-Sepharose, Source-15Q)
B19: UVR8 W302 single-Trp mutant (receptor, Arabidopsis thaliana, UniProt Q9FN03 1-440, looked up)
chain: B1 chain with F250W, W302F
notes: UVR8, Arabidopsis thaliana; mutant plasmid built on the wild-type plasmid; also called W302F; source: E. coli BL21-DE3, purified (Ni-Sepharose, Source-15Q)

Target: the molecule itself
Test: SEC; dimer/monomer state of the purified protein before UV irradiation; 150 mM NaCl, 25 mM Tris-HCl, pH 8.0

Row | Protein | binding result
1 | B1 | binds
2 | B2 | binds
3 | B3 | binds
4 | B4 | binds
5 | B5 | binds
6 | B6 | binds
7 | B7 | binds
8 | B8 | binds
9 | B9 | binds
10 | B10 | binds
11 | B11 | binds
12 | B12 | binds
13 | B13 | binds
14 | B14 | binds
15 | B15 | binds
16 | B16 | binds
17 | B17 | binds
18 | B18 | binds
19 | B19 | binds
